Laboratory results taken from patent publication US20140348844A1 (UCB, published 2014).
Residue numbers refer to the chain shown, from its start. Where “and” joins values, the source holds several entries; their conditions need not be identical. Equal entries are not always repeated.

Experiments:
[1] = biological target: TcdA ribotype 078 (Clostridium difficile ribotype 078); test: cell-based or functional assay
[2] = biological target: TcdA purified from strain VPI10463 (Clostridium difficile strain VPI10463, UniProt P16154 1-2710); test: cell-based or functional assay
[3] = biological target: TcdA CROPS456 (TcdA456) (Clostridium difficile ribotype 027, UniProt P16154 2205-2608)
[4] = biological target: T1, TcdA from ribotype 027 (Clostridium difficile ribotype 027, UniProt P16154 1-2710); test: estimated from SPR on TcdA sub-domains
T1 construct: also called TcdA ribotype 027; TcdA whole toxin

[5] = biological target: T2, toxin B (VPI 10463) (Clostridium difficile strain VPI 10463, UniProt P18177 2-2366); test: cell-based or functional assay
[6] = biological target: T2, toxin B (VPI 10463); test: cell-based or functional assay; remark: listed apart in the source
[7] = biological target: T2, toxin B (VPI 10463); test: cell-based or functional assay; remark: listed apart in the source
[8] = biological target: T3, TcdB binding (TcdB1234) (Clostridium difficile ribotype 027, UniProt P18177 1833-2366); test: SPR BIAcore 3000, Mab captured on anti-human Fc, TcdB1234 in solution, purified Mab 3 point titration
T3 construct: also called CROPs1,2,3,4 of Toxin B

[9] = biological target: T3, TcdB binding (TcdB1234); test: SPR Biacore 3000, biotinylated TcdB1234 on streptavidin chip, antibody at 500 nM, saturating response

B1: CA164_00997.g1 (antibody, V domains shown)
VH: EVQLVESGGGLVQPGGSLRLSCTVSGIDLSSHHMCWVRQAPGKGLEYIGVIYHFGSTYYANWATGRFTISKDSTTVYLQMNSLRAEDTATYFCARASIAGYSAFDPWGQGTLVTVS
VL: ALVMTQSPSSFSASTGDRVTITCQASQSISSYLSWYQQKPGKAPKLLIYRASTLASGVPSRFSGSGSGTEYTLTISCLQSEDFATYYCLGVYGYSNDDGIAFGGGTKVEIK
- EC50 values (ng/ml) - TcdA ribotype 078, LD80 [1]: 0.33 ng/mL
- EC50 values (ng/ml) - TcdA ribotype 078, LD90 [1]: 0.64 ng/mL
- EC50 values (ng/ml) - TcdA ribotype 078, LD95 [1]: 1.11 ng/mL
- EC50 values (ng/ml) - TcdA ribotype 078, LDmax [1]: 2.57 ng/mL

B2: CA164_00995.g1 (antibody, V domains shown)
VH: EVQLVESGGGLVQPGGSLRLSCTASGFSLSNYDMIWVRQAPGKGLEYIGFINTGGITYYASWAKGRFTISRDSSTVYLQMNSLRAEDTATYFCARVDDYIGAWGAGLWGQGTLVTVS
VL: DVVMTQSPSTLSASVGDRVTITCQASQSINNYFSWYQQKPGKAPKLLIYGAANLASGVPSRFKGSGSGTEYTLTISSLQPDDFATYSCQNNYGVHIYGAAFGGGTKVEIK
notes: also called CA995; CA164_0995.g1
- EC50 (ng/ml), TcdA neutralisation on Caco-2 cells, TcdA at LD80 [2]: 37.6 ng/mL
- Kd [3]: 119 pM
- koff [3]: 3.42e-05 s⁻¹
- kon [3]: 287000 M⁻¹ s⁻¹
- Valency of binding, TcdA, est. [4]: 1

B3: CA164_1134.g5 (antibody, V domains shown)
VH: EVQLQESGPGLVKPSETLSLTCTVSGFSLNSYTITWVRQPPGKGLEWIAAISGGGSTYFNSALKSRVTISRDTSKSQVSLKLSSVTAADTAVYYCTRPRWYPRSYFDYWGRGTLVTVS
VL: DVQLTQSPSFLSASVGDRVTITCKASKSISNHLAWYQEKPGKANKLLIHSGSTLQPGTPSRFSGSGSGTEFTLTISSLQPEDFATYYCQQYDEYPYTFGQGTRLEIK
notes: also called CA1134; CA164_01134.g5
- Maximum neutralisation, TcdB LD75 [5]: 45%
- Maximum neutralisation, TcdB LD86 [5]: 25%
- Maximum neutralisation, TcdB LD90 [5]: 15%
- IC50 (ng/ml), TcdB neutralisation on Caco-2 cells, toxin at LD80 [6]: 8 ng/mL
- EC50(ng/ml), TcdB neutralisation on Caco-2 cells, constant toxin concentration [7]: > 1000 ng/mL
- Kd [8]: 48.1 pM and 48 pM
- koff [8]: 2.45e-05 s⁻¹
- kon [8]: 509000 M⁻¹ s⁻¹

B4: CA164_1099.g2 (antibody, V domains shown)
VH: B3 VH with N30Q, T35S, F59Y, S61L, A62P
VL: DVQLTQSPSFLSASVGDRVTITCKASKSISNHLAWYQEKPGKANKLLIHSGSTLQSGTPSRFSGSGSGTEFTLTISSLQPEDFATYYCQQYDEYPYTFGQGTRLEIKR
- IC50 (ng/ml), TcdB neutralisation on Caco-2 cells, toxin at LD80 [6]: 2 ng/mL

B5: CA164_1151.g4 (antibody, V domains shown)
VH: EVQLQESGPGLVKPSETLSLTCTVSGFSLTSYYVHWVRQPPGKGLEWMGCIRTGGNTEYQSEFKSRVTISRDTSKNQVSLKLSSVTAADTAVYYCARGNYGFAYWGQGTLVTVS
VL: AIQMTQSPSSLSASVGDRVTITCKASQNVGNNVAWYQHKPGKAPKLLIYYASNRFTGVPSRFTGGGYGTDFTLTISSLQPEDFATYYCQRVYQSTWTFGQGTKVEIK
notes: also called CA1151; CA1151.g4
- Maximum neutralisation, TcdB LD75 [5]: 45%
- Maximum neutralisation, TcdB LD86 [5]: 25%
- Maximum neutralisation, TcdB LD90 [5]: 20%
- IC50 (ng/ml), TcdB neutralisation on Caco-2 cells, toxin at LD80 [6]: 182 ng/mL
- Binding Response (RU) [9]: 1230 RU

B6: CA164_01000.g1 (antibody, V domains shown)
VH: EVQLVESGGGLIQPGGSLRLSCTVSGIDLSSDAVGWVRQAPGKGLEYIGIIATFDSTYYASWAKGRFTISKASSTTVYLQMNSLRAEDTATYFCARTGSWYYISGWGSYYYGMDLWGQGTLVTVS
VL: EIVMTQSPSTLSASVGDRVTITCQASQSIYSYLAWYQQKPGKAPKLLIYDASTLASGVPSRFKGSGSGTEFTLTISSLQPDDFATYYCQGNAYTSNSHDNAFGGGTKVEIK
- EC50 values (ng/ml) - TcdA ribotype 078, LD80 [1]: 2.04 ng/mL
- EC50 values (ng/ml) - TcdA ribotype 078, LD90 [1]: 2.41 ng/mL
- EC50 values (ng/ml) - TcdA ribotype 078, LD95 [1]: 5.03 ng/mL
- EC50 values (ng/ml) - TcdA ribotype 078, LDmax [1]: 14.2 ng/mL

B7: CA164_00922.g1 (antibody, V domains shown)
VH: EVQLVESGGGLVQPGGSLRLSCAASGFTISSYYMSWVRQAPGKGLEWIGIISSGGHFTWYANWAKGRFTISSDSTTVYLQMNSLRDEDTATYFCARAYVSGSSFNGYALWGQGTLVTVS
VL: DPVMTQSPSTLSASVGDRVTITCQASQSISNALAWYQQKPGKAPKLLIYSASSLASGVPSRFKGSGSGTEFTLTISSLQPDDFATYYCQYTHYSHTSKNPFGGGTKVEIK
- EC50 values (ng/ml) - TcdA ribotype 078, LD80 [1]: 0.11 ng/mL
- EC50 values (ng/ml) - TcdA ribotype 078, LDmax [1]: 0.68 ng/mL
